Here are results for three substances from patent US20240052038A1.

Assay [1] deals with Fc-γ receptors expressed on the immune cells. The assay is described as follows: cell-based or functional assay.
The target is the same in assay [2]. The assay is described as follows: cell-based or functional assay. The source holds these as a separate data set.
Assay [3] deals with mouse PD-L1 on CD3+ T lymphocytes (mouse) (UniProt Q9EP73). Description: receptor occupancy on blood CD3+ T cells by flow cytometry, correlated with serum antibody concentration after a single injection in mice. (In general: Flow cytometry measures light scatter and fluorescence of single cells or particles in a stream.)
For assay [4] the target is unchanged. Description: receptor occupancy on blood CD3+ T cells by flow cytometry, mice dosed with 1.5 mg/mouse, day 10.

Like-named read-outs stand apart in the source and are kept apart here.

Sequence of mouse PD-L1 on CD3+ T lymphocytes (mouse) (Q9EP73 19-290): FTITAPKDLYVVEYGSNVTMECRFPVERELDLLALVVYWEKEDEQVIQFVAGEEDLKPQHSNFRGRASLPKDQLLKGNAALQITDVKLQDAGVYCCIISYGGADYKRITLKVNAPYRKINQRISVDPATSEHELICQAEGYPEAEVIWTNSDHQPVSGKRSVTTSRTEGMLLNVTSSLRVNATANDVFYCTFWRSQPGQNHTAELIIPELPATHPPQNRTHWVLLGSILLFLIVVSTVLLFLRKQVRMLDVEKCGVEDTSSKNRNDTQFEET

As for Rituximab (antibody), in assay [1], the EC50 (ADCC, Raji/CD-20 target cells, E/T 25:1) was found to be 1.9 ng/mL; the Target cell lysis (ADCC, Raji/CD-20 target cells, E/T 25:1) came to 43.6%; the Target cell lysis (ADCC, Raji/CD-20 target cells, PBMC effectors, E/T 25:1) is 48.8%. In assay [2], this substance showed an EC50 (ADCC, Raji/CD-20 target cells, E/T 25:1) of 2.1 ng/mL and a Target cell lysis (ADCC, Raji/CD-20 target cells, E/T 25:1) of 53.5%.
For the substance biosimilar of atezolizumab (antibody), in assay [1], the EC50 (ADCC, CHO-K1/PD-L1 target cells, E/T 25:1; no dose response curve) was 9.5 ng/mL and the Target cell lysis (ADCC, CHO-K1/PD-L1 target cells, E/T 25:1) amounted to 1.4%.
With “rat anti-mouse PD-L1 monoclonal antibody (clone 10F.9G2, BioXCell)”, the serum antibody concentration above which complete target occupancy was achieved in assay [3] was 1 nM. This substance also came in with a receptor occupancy in assay [4] of more than 60%.
